According to publication PMC8000039, “Toxin-Activating Stapled Peptides Discovered by Structural Analysis Were Identified as New Therapeutic Candidates That Trigger Antibacterial Activity against Mycobacterium tuberculosis in the Mycobacterium smegmatis Model” (Microorganisms, 2021):

Legend:
[1] = system: VapBC26-expressing M. smegmatis mc2155 cells; type: cell-based, Mycobacterium smegmatis
[2] = CD spectroscopy, helicity calculated by CDNN software; type: physicochemical; conditions: 50 μM peptide, 10 mM potassium phosphate pH 7, 100 mM ammonium sulfate, 20 °C, average of three scans
Method: CD measurements were conducted at 20 °C using a Chirascan Plus spectropolarimeter (Applied Photophysics, Leatherhead, UK) in a cuvette with a 1 mm path length. The peptide samples were prepared at 50 μM in buffer consisting of 10 mM potassium phosphate (pH 7) and 100 mM ammonium sulfate. CD scans were taken from 180 nm to 260 nm at a speed of 100 nm/min with a 1 nm bandwidth. The helicity of each peptide was calculated by CDNN software.

[3] = system: VapBC26-harboring M. smegmatis; assay: Confocal microscopy of FITC-labeled peptides (cell permeability); type: cell-based, Mycobacterium smegmatis; conditions: FITC-labeled peptide 10 μM, 1 h, 37 °C, trypsin to degrade surface-bound and extracellular peptide, two independent experiments
Method: Confocal microscopy was used to assess the permeability of M. smegmatis using FITC-labeled peptides. Cultures of M. smegmatis grown in complete 7H9 medium to mid-logarithmic phase (OD600 0.3–0.5) were diluted 5-fold with Muller-Hinton broth (BD Biosciences, Franklin Lakes, NJ, USA). Diluted cell suspensions were aliquoted into Eppendorf tubes and treated with 10 μM peptide. After 1 h of incubation at 37 °C and 100 rpm, the cell suspensions were washed with PBS. If successful internalization of FITC-labeled peptides is achieved, then fluorescence will be detected in the images. Surface-bound peptides and extracellular peptides were degraded by trypsin, and thus remained fluorescence signals in the images indicate the indeed internalization of peptide. Images were acquired on a TCS8 confocal scope (Leica Microsystems, Wetzlar, Germany) with a 63× oil immersion objective.

## VapC26 α4_54–65: linear α4-mimicking peptide of VapC26 (residues 54–65), from the authors' previous study (DAELAVLRELAG; UniProt O53779 54-65, looked up, fragment)
[1]
  effect on cell growth (OD600) compared with control cells: only a slight effect
[2]
  Helicity (α-helical propensity): 20.8%
[3]
  cell penetration / uptake, fluorescence signal inside the cells: barely observed
